Measurements as given in patent US20250353921A1 (ASTRIA THERAPEUTICS, published 2025).
Where “and” joins values, the source holds several entries; their conditions need not be identical. Equal values may be shown once. One block for each binder: values may come before it.

Assays:
cynomolgus OX40-ECD-his [1] = molecular target: T1, cynomolgus OX40-ECD-his (cynomolgus); assay: SPR Biacore T200, ratio of KD values
T1 construct: extracellular domain; also called Cyno OX40

[2] = molecular target: T2, human OX40 (TNFRSF4, CD134) on cells (human, UniProt P43489 29-277); assay: flow cytometry on OX40-expressing HPB-ALL cells; cells pre-incubated with cold MAB1, washed, then stained with a single dose of the competitor GBR 830-AF647
T2 construct: also called OX40 on HPB-ALL cells; Jurkat-NFκB-OX40 cells
T2 sequence: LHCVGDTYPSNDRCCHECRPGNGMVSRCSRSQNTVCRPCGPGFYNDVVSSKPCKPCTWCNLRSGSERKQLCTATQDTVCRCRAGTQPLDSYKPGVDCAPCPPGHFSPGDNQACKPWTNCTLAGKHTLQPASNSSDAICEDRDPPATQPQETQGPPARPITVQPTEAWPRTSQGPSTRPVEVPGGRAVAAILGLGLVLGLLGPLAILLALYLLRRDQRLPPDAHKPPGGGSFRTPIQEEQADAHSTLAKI

cynomolgus OX40-ECD-his [3] = molecular target: T1, cynomolgus OX40-ECD-his; assay: SPR, affinity for the extracellular domain (ECD) of cynomolgus monkey OX40
human OX40-CRD-avi-his = molecular target: T3, human OX40-CRD-avi-his (human, UniProt P43489 29-170, limits assumed); assay: SPR, affinity for the extracellular domain (ECD) of human OX40; lower end of the range
T3 construct: Only the CRD region of the ECD was used
T3 sequence: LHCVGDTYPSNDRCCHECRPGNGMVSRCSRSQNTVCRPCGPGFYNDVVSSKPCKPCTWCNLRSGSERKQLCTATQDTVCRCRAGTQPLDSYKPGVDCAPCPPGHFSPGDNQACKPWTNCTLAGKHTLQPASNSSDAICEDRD

[4] = molecular target: T2, human OX40 (TNFRSF4, CD134) on cells; assay: flow cytometry on OX40-expressing HPB-ALL cells; cells pre-incubated with cold GBR 830, washed, then stained with a single dose of the competitor MAB1-AF647
[5] = molecular target: T4, cynomolgus monkey (cy) OX40 protein (Example 5) (cynomolgus monkey); assay: ELISA on coated OX40, ratio of EC50 values
rabbit (rb) OX40 protein [6] = molecular target: T5, rabbit (rb) OX40 protein (rabbit); assay: ELISA on coated OX40, ratio of EC50 values
T5 construct: also called Rabbit OX40

mouse (mo) OX40 protein = molecular target: T6, mouse (mo) OX40 protein (mouse, UniProt P47741 20-211); assay: SPR single cycle kinetics, MAB10 captured
T6 construct: also called Mouse OX40
T6 sequence (looked up): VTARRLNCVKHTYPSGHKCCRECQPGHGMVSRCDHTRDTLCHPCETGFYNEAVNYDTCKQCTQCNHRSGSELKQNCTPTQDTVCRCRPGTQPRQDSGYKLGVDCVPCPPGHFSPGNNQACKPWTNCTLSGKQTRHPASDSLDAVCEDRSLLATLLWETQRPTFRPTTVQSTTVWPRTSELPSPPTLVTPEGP

rat (ra) OX40 protein = molecular target: T7, rat (ra) OX40 protein (rat, UniProt P15725 20-210, limits assumed); assay: SPR single cycle kinetics, MAB10 captured
T7 construct: also called Rat OX40
T7 sequence (looked up): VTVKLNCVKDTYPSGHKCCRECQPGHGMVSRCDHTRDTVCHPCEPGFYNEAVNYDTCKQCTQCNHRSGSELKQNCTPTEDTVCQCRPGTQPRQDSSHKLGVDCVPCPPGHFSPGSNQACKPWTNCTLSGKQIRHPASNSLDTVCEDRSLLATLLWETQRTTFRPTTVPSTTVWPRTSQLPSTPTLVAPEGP

[7] = molecular target: T8, Human (hu) OX40 protein (Example 5 cross reactivity) (human, UniProt P43489 29-216, limits assumed); assay: SPR Biacore 8K+, single cycle kinetics, MAB10 captured by anti-human Fc, OX40 analyte
T8 construct: whole entry named
T8 sequence: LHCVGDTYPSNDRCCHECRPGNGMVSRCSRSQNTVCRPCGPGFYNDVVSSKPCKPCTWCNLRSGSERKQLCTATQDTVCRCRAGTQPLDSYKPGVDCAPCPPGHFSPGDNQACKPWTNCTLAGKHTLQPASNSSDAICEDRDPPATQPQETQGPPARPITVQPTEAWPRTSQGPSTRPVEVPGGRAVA

[8] = molecular target: T4, cynomolgus monkey (cy) OX40 protein …; assay: as above
rabbit (rb) OX40 protein [9] = molecular target: T5, rabbit (rb) OX40 protein; assay: as above
[10] = molecular target: T9, Human FcRn protein (Acro Biosystems, catalog NO: FCN-H52W7) (human, UniProt P55899 24-297; P61769 21-119); assay: SPR Biacore 8K+, antibody immobilised, FcRn analyte, pH 6.0; pH 6.0; ratio of the KD of MAB1 to that of MAB10
T9 construct: also called huFcRn

- fold increase in affinity (KD GBR 830 / KD MAB1) (cynomolgus OX40-ECD-his [1]): 5.5 fold
- IC50 (read off the curve) [2]: ~0.02 µg/mL
B1: MAB1 IgG1 (antibody)
heavy: not shown
light: EIVLTQSPATLSLSPGERATLSCRASSSVSYMHWYQQKPGQAPRPWIYATSNRATGIPARFSGSGSGTDYTLTISSLEPEDFAVYYCQQFGAWPWTFGQGTKVEIKRTVAAPSVFIFPPSDEQLKSGTASVVCLLNNFYPREAKVQWKVDNALQSGNSQESVTEQDSKDSTYSLSSTLTLSKADYEKHKVYACEVTHQGLSSPVTKSFNRGEC
notes: Human IgG1, kappa

- Kd (cynomolgus OX40-ECD-his [3]): 5000 nM and 3000 nM
- Kd (human OX40-CRD-avi-his): 80 nM
- IC50 (read off the curve) [4]: ~0.2 µg/mL
B2: GBR 830 (telazorlimab) (antibody, human IgG1, kappa)
heavy: not shown
light: EIVLTQSPATLSLSPGERATLSCRASSSVSYMHWYQQKPGQAPRPWIYATSNRATGIPARFSGSGSGTDYTLTISSLEPEDFAVYYCQQWSSNPWTFGQGTKVEIKRTVAAPSVFIFPPSDEQLKSGTASVVCLLNNFYPREAKVQWKVDNALQSGNSQESVTEQDSKDSTYSLSSTLTLSKADYEKHKVYACEVTHQGLSSPVTKSFNRGEC
notes: IgG1; also called Antibody 830; ISB830

- fold EC50 against human OX40 [5]: 4 fold
- fold EC50 against human OX40 (rabbit (rb) OX40 protein [6]): 8 fold
- binding result (mouse (mo) OX40 protein): no binding
- binding result (rat (ra) OX40 protein): no binding
- Kd [7]: 6.7 nM
- koff [7]: 0.0021 s⁻¹
- kon [7]: 300000 M⁻¹ s⁻¹
- Kd [8]: 268 nM
- koff [8]: 0.052 s⁻¹
- kon [8]: 200000 M⁻¹ s⁻¹
- Kd (rabbit (rb) OX40 protein [9]): 3300 nM
- koff (rabbit (rb) OX40 protein [9]): 0.03 s⁻¹
- kon (rabbit (rb) OX40 protein [9]): 9000 M⁻¹ s⁻¹
- fold increase of the binding constant against MAB1 [10]: 8.8 fold
B3: MAB10 (antibody, human IgG1, kappa)
heavy: QVTLKESGPALVKPTQTLTLTCSFSGFSLSTSGMGVGWIRQPPGKALEWIAHIWWDDDKYYNTALKTRLTISKDTSKNQVVLTMTNMDPVDTATYYCARIDWDGFAYWGQGTLVTVSSASTKGPSVFPLAPSSKSTSGGTAALGCLVKDYFPEPVTVSWNSGALTSGVHTFPAVLQSSGLYSLSSVVTVPSSSLGTQTYICNVNHKPSNTKVDKKVEPKSCDKTHTCPPCPAPELLGGPSVFLFPPKPKDTLYITREPEVTCVVVDVSHEDPEVKFNWYVDGVEVHNAKTKPREEQYNSTYRVVSVLTVLHQDWLNGKEYKCKVSNKALPAPIEKTISKAKGQPREPQVYTLPPSRDELTKNQVSLTCLVKGFYPSDIAVEWESNGQPENNYKTTPPVLDSDGSFFLYSKLTVDKSRWQQGNVFSCSVMHEALHNHYTQKSLSLSPGK
light: EIVLTQSPATLSLSPGERATLSCRASSSVSYMHWYQQKPGQAPRPWIYATSNRATGIPARFSGSGSGTDYTLTISSLEPEDFAVYYCQQFGAWPWTFGQGTKVEIKRTVAAPSVFIFPPSDEQLKSGTASVVCLLNNFYPREAKVQWKVDNALQSGNSQESVTEQDSKDSTYSLSSTLTLSKADYEKHKVYACEVTHQGLSSPVTKSFNRGEC
notes: MAB1 with M252Y, S254T and T256E (EU numbering) in the IgG1 Fc; also called MAB1 Heavy Chain + YTE
